{"source": "paper PMC5762688", "about": "(Scientific Reports, 2018)", "binders": {"B1": {"name": "Hendra virus V protein residues 1-405, tagless recombinant (domain or fragment)", "chain": "MDKLDLVNDGLDIIDFIQKNQKEIQKTYGRSSIQQPSTKDRTRAWEDFLQSTSGEHEQAEGGMPKNDGGTEGRNVEDLSSVTSSDGTIGQRVSNTRAWAEDPDDIQLDPMVTDVVYHDHGGECTGHGPSSSPERGWSYHMSGTHDGNVRAVPDTKVLPNAPKTTVPEEVREIDLIGLEDKFASAGLNPAAVPFVPKNQSTPTEEPPVIPEYYYGSGRRGDLSKSPPRGNVNLDSIKIYTSDDEDENQLEYEDEFAKSSSEVVIDTTPEDNDSINQEEVVGDPSDQGLEHPFPLGKFPEKEETPDVRRKDSLMQDSCKRGGVPKRLPMLSEEFECSGSDDPIIQELEREGSHPGGSLRLREPPQSSGNSRNQPDRQLKTGDAASPGGVQRPGTPMPKSRIMPIKKG"}}, "biological_target": "Importin α2/β1 heterodimer (mouse), tagless recombinant, preformed (mouse, UniProt P52293 1-529; P70168 1-876)", "experiment": "[…]; 10 mM Tris, 150 mM NaCl, 10% glycerol, 0.75 mM TCEP, pH 8.0; […]", "conditions": "both partners purified", "data": [{"binder": "B1", "values": [{"measurement": "binding result", "result": "binds"}]}]}
